The target of the experiment is T1, human serum albumin (Homo sapiens, UniProt P02768).
T1 construct: also called HSA
Description: BLI. To be noted: both partners purified.

Data on 2 molecules can be found in article PMC9651861 (Science Advances, 2022).

B1: DesAb-RBD-C1 (VHH)
VHH: EVQLEESGGGLVQPGGSLRLSCAASGFNIKDTYIGWVRQAPGKGEEWVASIYPTSGYTRYADSVKGRFTISADTSKNTAYLQMNSLRAEDTAVYYCAAGSGSSATEVYEEFDYWGQGTLVTVSS
For B1, the binding result is recorded as “no binding”.

B2: DesAb-RBD-C2 (VHH)
VHH: EVQLEESGGGLVQPGGSLRLSCAASGFNIKDTYIGWVRQAPGKGEEWVASIYPTSGYTRYADSVKGRFTISADTSKNTAYLQMNSLRAEDTAVYYCAAGSVVADLSVEEFDYWGQGTLVTVSS
In the case of B2, the binding result is listed as “no binding”.
